Assay results from the nanobody polyreactivity screen of Harvey et al. (2022).

Experiment: yeast display, Sf9 membrane polyspecificity reagent, FACS + sequencing; frameworks hold sequencing errors
Outline: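 Galactose-induced (36–48 hours) yeast carrying a synthetic nanobody display library were exposed to 10% biotinylated, detergent-solubilized Sf9 membrane reagent at 4 °C for 1 hour. FACS followed streptavidin microbead enrichment, using low and high (top ~1%) gates for expression (anti-HA) and reagent binding (streptavidin). Colony PCR, MiSeq 2 × 250 sequencing and CDR-length filtering followed. Labels for polyreactivity reflect the gate of origin.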

Row | Sequence | polyreactivity (PSR sort gate)
1 | QLQLVESGGGLVQAGGSLRLSCAASGGIFPNYVMGWYRKAPGKERELVAGITSGGNTNYADSVKGRFTISRDNAKNTVYLQMNSLKPEDTAVYYCAADGYRYSVYLIRNPMDYWGQGTQVTVSS | low polyreactivity
2 | QVQLVESGGGLVQAGGSLRLSCAASGSILYIYAMGWYSQAPGKERELVASINSGGSTNYADSVKGRFTISRDNAKNTVYLQMNSLKPEDTAVYYCNADTIPDGEDRYDYWGQGTQVTVSS | low polyreactivity
3 | QVQLVESGGGLVQAGGSLRLSCAASGRIFARYAMGWYRQAPGKERELVAAIRTSGGITYYADSVKWRFTISRDNAKNTVYLQMNSLKPEDTEVYYCAADFYSYSSVKYDYWGQGTQVTVSS | low polyreactivity
4 | QVQLVESGGGLVQAGGSLRLSCAASGRIFSYYDMGWYRQAPGKERELVAAITWRGGSTYYADSVKGRFTISRDNAKNTVYLQMNSLKPEDTAVYYCAADWYPSIWEYDYWGQGSQVTVSS | low polyreactivity
5 | QVQLVESGGGLLQAGGSLRLSCAASGLTFVDYAMGWYRQAPGKERELVAAITTSGGSITYYSDSVKGRFTISRDNAKNTVYLQMNSLKPEDTAVYSCNADYGIYTDSFRGPDYESWGQGTQVTVSS | low polyreactivity
6 | QVQLVESGGGLVQAGGSLRLSCAASGITFFDYAMGWYRQAPGKERELVAAIDLSDGRTYYADSVKGRFTISRDNAKNTVYLQMNSLKPEDTAVYYCARQHEDYGYYWYYWYDYDYWGQGTQVTVSS | low polyreactivity
7 | QVQLVESGGGLVQAGGSLRLSCAASGSTFGTYAMGWYRQAPGKERELVAAISYRGGSTYYADSVKGRFTISRDNAKNTVYLQMNSLKPEDTAVYYCATRKYAATGYDYWGQGTQVTVSS | high polyreactivity
8 | QVQLVESGGGLVQAGGSLRLSCAASGFTFSRNTMGWYRQAPGKERELVAAITWRGGSTYYADSVKGRFTISRDNAKNTVYLQMNSLKPEDTAVYYCAASSPNLEFDYWGQGTQVTVSS | high polyreactivity
9 | QVQLVESGGRLGQAGGSLRISCAASGGTFWYYDMGWYRQAPGKERELVAAISSGGNTYYADSVKGRFTISRDNAKITVYLQMNSLKPEDTAVYYCAALPKYGSYYYYPPFDYDYWGQGTQVTVSS | low polyreactivity
10 | QVQLVESGGGLVQAGGSLRLSCAASGSIFGYYALGWYRQAPGKERELVAAISRSGGSTYYADSVKGRFTISRDNAKNTVYLQMNSLKPEDTAVYYCAADDYPYGNYYWGQGTQVTVSS | high polyreactivity
11 | QVQLVESGGGLVQAGGRLRLICAASGSILRYAMGWYIQAPGKERELVAAISYGGGSTYYADSVKGRFTISRDNAKNTVYLQMNSLKPEDTAVYYCNARQYVWYPYEYWGQGTQVTVSS | high polyreactivity
12 | QVQLVESGGGLVQAGGSLRLSCAASGSTFSAYVMGWYRQAPVKERELVAAISSIGGSTYYADSVKGRFTISRDNAKNTVYLQMNSLKPEDTAVYYCAAEPPGSTYEGGYWGQGTQVTVSS | low polyreactivity
13 | QVQLVESGGGLVQAGGSLRLSCASSGIIFSYNAMGWSRQAPGKERELVAAISSGGRTYYADSVKGRFTISRDNAKNTVYLQMKSLKPEDTAVYYCATTSPHRLYGYYYDYWGQGTQVTVSS | high polyreactivity
14 | QVQLVESGGGLVQAGGSLRLSCAAYGGIFYSNGMGWYRQAPGKERELVAAITGGDITDYADSVKGRFTISRDNAKNTVYLQMNSLKPEDTAVYYCAVESYPPDYGPRFGSWGQGTQVTVSS | low polyreactivity
15 | QVQLVESGGGLVQAGGSLRLSCAASGFTFTRYTMGWYRQAPGKERELVAHITSGDSTNYADSVKGRFTISRDNAKNTVYLQKNSLKPEDTAVYYCNAEVKGFFYDYDYWGQGTQVTVSS | low polyreactivity
16 | QVQLVESGGGLVQAGGSIRLSCAASGRIFARYAMGWYRQAPGTERELVASITVSGDNTYYADSVKGRFTISRDNAKKTVYLQMNSLKPEDTAVYYCAVRAVVLFGFFEYDYWGQGTQVTVSS | low polyreactivity
17 | QVQLVESGGGLVQAGGSLRLSCAASGSIFRTYSMGGYRQAPGKERELVATITFGGVSTYYADSVKGRFTISRDNAKNTVYLQMNSLKPEDTAVYYCAADVYTRFWRVYRFDYWGQGTQVTVSS | low polyreactivity
